The results in this text go back to article PMC6509562, “Properties of the HtrA Protease From Bacterium Helicobacter pylori Whose Activity Is Indispensable for Growth Under Stress Conditions” (Frontiers in Microbiology, 2019).

For data set [1], the target named is HtrAHpS221A from H. pylori strain N6 (Helicobacter pylori strain N6) (UniProt B5Z6H5). The data set can be described thus: AUC.
Data set [2] deals with the molecule itself. The data set can be described thus: SEC; Superose 12HR 10/30, 300 mM NaCl, 50 mM Na-phosphate pH 6.5 or 8.0, room temperature; refolded HtrA variant 41 uM without substrate.

As to “HtrAHpS221A from H. pylori strain N6 (from UniProt B5Z6H5 1-476) (enzyme)”, in data set [1], the content of peak 1 (6.1 S) at 0.65 mg/ml is 38%, the content of peak 1 (6.1 S) at 1.6 mg/ml is 38%, the content of peak 1 (6.1 S) at 3.3 mg/ml amounted to 38% and the content of peak 2 (8.9 S) at 3.3 mg/ml was 3.4%. Besides, in data set [1], the content of peak 3 (10.3 S) at 1.6 mg/ml stood at 8.8%, the content of peak 3 (10.6 S) at 3.3 mg/ml is 5.1%, the content of peak 3 (11.0 S) at 0.65 mg/ml came to 12% and the content of peak 4 (12.4 S) at 3.3 mg/ml worked out at 3.8%. In data set [1], this molecule gave a content of peak 4 (13.0 S) at 1.6 mg/ml of 3.2%, a content of peak 5 (15.7 S) at 3.3 mg/ml of 9%, a content of peak 5 (15.8 S) at 0.65 mg/ml of 8.1% and a content of peak 5 (15.8 S) at 1.6 mg/ml of 7.9%. In data set [1], this molecule registered a content of peak 6 (19.5 S) at 3.3 mg/ml of 28%, a content of peak 6 (19.9 S) at 0.65 mg/ml of 29%, a content of peak 6 (19.9 S) at 1.6 mg/ml of 30% and a content of peak 7 (22.8 S) at 3.3 mg/ml of 3.1%. In data set [1], this molecule gave a content of peak 8 (24.5 S) at 0.65 mg/ml of 4.8%, a content of peak 8 (25.6 S) at 1.6 mg/ml of 5.9% and a content of peak 8 (25.8 S) at 3.3 mg/ml of 3.6%.

B1: HtrAEcS210A from Escherichia coli (enzyme, UniProt P0C0V0 27-474, looked up)
chain: AETSSATTAQQMPSLAPMLEKVMPSVVSINVEGSTTVNTPRMPRNFQQFFGDDSPFCQEGSPFQSSPFCQGGQGGNGGGQQQKFMALGSGVIIDADKGYVVTNNHVVDNATVIKVQLSDGRKFDAKMVGKDPRSDIALIQIQNPKNLTAIKMADSDALRVGDYTVAIGNPFGLGETVTSGIVSALGRSGLNAENYENFIQTDAAINRGNAGGALVNLNGELIGINTAILAPDGGNIGIGFAIPSNMVKNLTSQMVEYGQVKRGELGIMGTELNSELAKAMKVDAQRGAFVSQVLPNSSAAKAGIKAGDVITSLNGKPISSFAALRAQVGTMPVGSKLTLGLLRDGKQVNVNLELQQSSQNQVDSSSIFNGIEGAEMSNKGKDQGVVVNNVKTGTPAAQIGLKKGDVIIGANQQAVKNIAELRKVLDSKPSVLALNIQRGDSTIYLLMQ
notes: also called DegP S210A; S/A
With B1, the “stoichiometry N” value in data set [2] came to 6.
